Test results taken from patent US20260234738A1 (Regeneron, published 2026).

Key:
[1] = biological target: SARS-CoV-2 Spike Protein (RBD) (R319-F541).mFc (SARS-CoV-2); experiment: Luminex beads, supernatant
[2] = biological target: Bt-SARS-CoV-2 Spike Protein (RBD) (R319-F541).mFc (SARS-CoV-2); experiment: Luminex beads, supernatant
[3] = biological target: SARS-CoV-2 Spike Protein (RBD) (R319-F541).hFc (SARS-CoV-2); experiment: Luminex beads, supernatant
[4] = biological target: SARS-COV-2 spike protein receptor binding domain (amino acids Arg319 to Phe541) expressed with the F (SARS-CoV-2)

Binder | MFI [1] | MFI [2] | MFI [3] | Kd [4] | t½ [4] | koff [4] | kon [4]
mAb10965 (antibody, V domains shown) VH: EVQLVESGGGLIQPGGSLRLSCAASVFTVSYNYMSWVRQAPGKGLEWVSVIYSGGSTYYADSVKGRFTISRDNSKNTLYLQMNSLRAEDTAVYYCARALPGWGGSFEYFDYWGQGTLVTVSS VL: not shown | 27100 MFI | 13700 MFI | 29600 MFI | – | – | – | –
mAb10930 (antibody, V domains shown) VH: EVQLVESGGGLVQPGRSLRLSCAASGFTFDDYAMYWVRQAPGKGLEWVSGISWNSGSIGYADSVKGRFTISRDNAKNSLYLQMNSLRAADTALYYCAKDKDWNSRGYYYYGMDVWGQGTTVTVSS VL: not shown | 28600 MFI | 16600 MFI | 28900 MFI | – | – | – | –
mAb10971 (antibody, V domains shown) VH: EVQLVESGGGLIQPGGSLRLSCAASGVTVSSNYMSWVRQAPGKGLEWVSVIYSGGSTFYSDSVKGRFSISRDNSKNTLYLQMNSLRAEDTAVYYCARDLYYYGMDVWGQGTTVTVSS VL: DIQLTQSPSFLSASVGDRVTITCRASQGISTYLAWYQQKPGKAPKLLIYAASTLQSGVPSRFSGSGSGTEFTLTISSLQPEDFATYYCQQLDSYPGLTFGGGTKVEIKR | 28700 MFI | 16700 MFI | 30000 MFI | – | – | – | –
mAb10957 (antibody, V domains shown) VH: EVQLVESGGGLVQPGGSLRLSCAASGVTVSSNYMSWVRQAPGKGLEWVSVIYSGGSTFYADSVKGRFTISRDNSKNTLFLQMNSLRIEDTAVYYCARDLGPYGMDVWGQGTTVTVSS VL: DIQLTQSPSFLSASVGDRVTITCRASQGISSYLAWYQQKPGKAPKLLIYAASTLQSGVPSRFSGSGSGTQFILTISSLQPEDFATYYCQQLNSYPGFTFGPGTKVDIKR | 18700 MFI | 10600 MFI | 22600 MFI | – | – | – | –
mAb10989 (antibody, V domains shown) VH: QVQLVQSGAEVKKPGASVKVSCKASGYIFTGYYMHWVRQAPGQGLEWMGWINPNSGGANYAQKFQGRVTLTRDTSITTVYMELSRLRFDDTAVYYCARGSRYDWNQNNWFDPWGQGTLVTVSS VL: QSALTQPASVSGSPGQSITISCTGTSSDVGTYNYVSWYQQHPGKAPKLMIFDVSNRPSGVSDRFSGSKSGNTASLTISGLQAEDEADYYCSSFTTSSTVVFGGGTKLTVLG | 19600 MFI | 11200 MFI | 22400 MFI | – | – | – | –
mAb10966 (antibody, V domains shown) VH: EVQLVESGGGLVQPGGSLRLSCAASGLTVSSNYMSWVRQAPGKGLEWVSVIYSGGSTFYADSVKGRFTISRDNSKNTLYLQMNSLRPEDTAVYYCAREGRIAATGYGMDVWGQGTTVTVSS VL: not shown | 30400 MFI | 17900 MFI | 30800 MFI | – | – | – | –
mAb10938 (antibody, V domains shown) VH: EVQLVESGGGLVQPGGSLRLSCAVSGFTVSSNYMSWVRQAPGKGLEWVSLIYSGGSTFYADSVKGRFTISRHNSKNTLYLQMNSLRAEDTAVYYCAREGGYSYDYNYWGQGTLVTVSS VL: DIQMTQSPSSLSASVGDRVTITCQASQDIRNYLNWYQQKPGKAPKLLIYDASNLETGVPSRFSGIGSGTDFTFTISSLQPEDIATYYCQQYDNLPITFGQGTRLEIKR | 30500 MFI | 17200 MFI | 29600 MFI | – | – | – | –
mAb10955 (antibody, V domains shown) VH: EVQLVESGGGLVQPGGSLRVSCAASGFTVSRNYMSWVRQAPGKGLEWVSVIYSGGSTFYADSVKGRFTISRDNSKNTLYLQMNSLRAEDTAIYYCARYIPRFDPWGQGTLVTVSS VL: DIQMTQSPSSLSASVGDRVTITCQASQDISNYLNWFQQKPGRAPKLLIYDASNLETGVPSRFSGSGSGTDFTFTISSLQPEDIATYYCQQYDNLPITFGQGTRLEIKR | 30800 MFI | 16800 MFI | 31200 MFI | – | – | – | –
mAb10954 (antibody, V domains shown) VH: EVQLVESGGGLVQPGGSLRLSCAASGITVSSNYMSWVRQAPGKGLEWVSLIYSGGSTYYADSVKGRFTISRDNSKNTLYLQMNSLRVEDTAVYYCARDHGMAAAGYNYWGQGTLVTVSS VL: DIQMTQSPSSLSASVGDRVTITCQASQDINKYLNWYQQKPGKAPKLLIYDASNLETGVPSRFSGSGSGTDFTFTINSLQPEDFATYFCQQYDNLPPAFGQGTKVEIKR | 31300 MFI | 18400 MFI | 31800 MFI | – | – | – | –
mAb10967 (antibody, V domains shown) VH: EVQLVESGGGLVQPGGSLRLSCAASGFTVSSNYMSWVRQAPGKGLEWVSVIYPGGSTFYADSVKGRFTISRDNSKNTLYLQMNSLRAEDTAVYYCARDQRDFAWGQGTLVTVSS VL: DIQMTQSPSSLSASVGDRVTITCQASQDISNYLNWYQQKPGKAPKLLIYDASNLETGVPSRFSGSGSGTDFTFTISGLQPEDIATYYCQQYDNLPPTFGQGTRLEIKR | 29600 MFI | 16800 MFI | 28700 MFI | – | – | – | –
mAb11006 (antibody, V domains shown) VH: EVQLVESGGGLVQPGGSLRLSCAASGFIVSRNYMSWVRQAPGKGLEWVSVIYSGGSTFYADSVKGRFTISRHNSKNTLYLQMNSLKAEDTAVYYCARELRGYFDYWGQGTLVTVSS VL: DIQLTQSPSFLSASVGDRVTITCWASQGISSYLAWYQQKPGKAPKLLIYAASTLQSGVPSRFSGSGSGTEFTLTISSLQPEDFATYYCQLLNSYPYTFGQGTKLEIK | – | – | – | ≤ 0.0532 nM | ≥ 19.2 h | – | –
mAb11008 (antibody, V domains shown) VH: EVQLVESGGGLVQPGGSLRLSCAASGFTVSSNYMTWVRQAPGKGLEWVSVIYSGGSTFYADSVKGRFTISRHNSENTLYLQMNSLRAEDTAVYYCARDLAAAGTDYWGQGALVTVSS VL: DIQLTQSPSFLSASVGDRVTITCWASQGISSYLAWYQQKPGKAPKLLIYAASTLQSGVPSRFSGSGSGTEFTLTISSLQPDDFATYYCQHLNSYLYTFGQGTKLEIK | – | – | – | 0.715 nM | 1.67 h | 0.000115 s⁻¹ | 161000 M⁻¹ s⁻¹
mAb10964 (antibody, V domains shown) VH: QVQLQESGPGLVKPSETLSLTCTVSGGSINNYYWIWIRQPPGKGLEWIGYIYHSGSTNYNPSLKSRVTISVDTSKNQFSLKVSSVTAADTAVYYCANMVRGVYEDDYWGQGTLVTVSS VL: DIQMTQSPSSLSASVGDRVTITCRASQSISNYLNWYQQKPGKAPKLLIFAASSLRSGVPSRFSGSGSGTDFTLTISSLHPEDFATYYCQQNYNTPLTFGPGTKVDIKR | 32400 MFI | 19200 MFI | 33100 MFI | – | – | – | –
mAb10923 (antibody, V domains shown) VH: QVQLVQSGAEVKKPGASVKVSCKASGYTFINYYIHWVRQAPGQGLEWMGWINPNSGGTNYAQKFQGRVTMTRDTSISTAYMELSRLRSDDTAVYYCAIITIFGVVTWFDPWGQGTLVTVSS VL: not shown | 37400 MFI | 19600 MFI | 37800 MFI | – | – | – | –
mAb11010 (antibody, V domains shown) VH: QVQLVESGGGVVQPGRSLRLSCAASGFTFSSYGMHWVRQAPGKGLEWVAVISYDGSYKYYADSVKGRFTISRDNSKNTLYLQMNSLRAEDTAVYYCAIDGGTVTTIFDYWGQGTLVTVSS VL: not shown | – | – | – | ≤ 0.0236 nM | ≥ 19.2 h | – | –
mAb11004 (antibody, V domains shown) VH: QVQLVESGGGVVQPGRSLRLSCVASGFTFSIYGMDWVRQAPGKGLEWVAVISYDGSNKYYADSVKGRFTISRDNSKNTLYLQMNSLRPEDTAVYYCAKDREAAADAFDIWGQGTMVTVSS VL: DIQMTQSPSSVSASVGDRVTITCRASQGISSWLAWYQQKPGKAPKLLIYAASSLHSGVPSRFSGSGSGTDFTLTISSLQPEDFATYYCQQANSFRLTFGGGTKVEIK | – | – | – | 0.191 nM | 2.9 h | 6.63e-05 s⁻¹ | 346000 M⁻¹ s⁻¹
mAb10984 (antibody, V domains shown) VH: EVQLVESGGGLVQPGGSLRLSCAASGLTVNRNYMSWVRQAPGKGLEWVSLIYSGGSTYYADSVKGRFTISRDNSKNTLYLQMNSLRLEDTAVYYCARGELGIPYGMDVWGQGTTVTVSS VL: QSVLTQPPSVSAAPGQKVTISCSGSSSNIGNNYVSWYQQLPGTAPKLLIYDNNKRPSGIPDRFSGSKSGTSATLGITGLQTGDEADYYCGTWDSSLSAGVFGGGTKLTVLG | 28400 MFI | 17100 MFI | 28400 MFI | – | – | – | –
mAb10939 (antibody, V domains shown) VH: EVQLVESGGGLVQPGGSLRLSCAASGLTVSSNYMNWVRQVPGKGLEWVSVIYSGGSKFYVDSVKGRFTISRHNSKNTLYLQMNSLRPEDTAVYYCTRDAQYYGMDVWGQGTTVTVSS VL: DIQMTQSPSSLSASVGDRVTITCRASQSISTYLHWYQQKPGEAPKLLIYAASSLQSGVPSRFSGSGSGTDFTLTISSLQPEDFATYYCQQSYSTPPEIFGQGTKLEIKR | 33900 MFI | 18700 MFI | 32900 MFI | – | – | – | –
mAb10956 (antibody, V domains shown) VH: EVQLVESGGGLVQPGGSLRLSCAASGLTVSSNYMSWVRQAPGKGLEWVSVIYSGGSTFYADSVKGRFTISRDNSKNTLYLQMNSLRAEDTAVYYCARDLIKYGMDVWGQGTTVTVSS VL: not shown | 28300 MFI | 12900 MFI | 30200 MFI | – | – | – | –
mAb10982 (antibody, V domains shown) VH: EVQLVESGGGLVQPGGSLRLSCAASGLTVSSNYMSWVRQAPGKGLEWVSVIYSGGTTYYADSVKGRFTISRHNSKNTLSLQMNSLRAEDTAVYYCARGEGANYYGMDVWGQGTTVTVSS VL: QSVLTQPPSVSGAPGQRVTISCTGSSSNIGTGYDVHWYQQLPGTAPKLLIYGNSNRPSGVPDRFSGSKSGTSASLAITGLQAEDEADYYCQSYDSSLSGYVVFGGGTKLTVLG | 23300 MFI | 12300 MFI | 23000 MFI | – | – | – | –
mAb10985 (antibody, V domains shown) VH: EVQLVESGGGLVQPGRSLRLSCAASGFTFDDYAMHWVRQAPGKGLEWVSGISWNRGSIGYADSVKGRFTISRDNAKNSLYLQMSSLRAEDTALYYCAKDGERWDSVVVPSARNGMDVWGQGTTVTVSS VL: QSVLTQPPSVSGAPGQRVTISCTGSSSNIGAGYDVHWYQQLPGTAPKLLIYGNSNRPSGVPDRFSGSKSGTSASLAITGLQAEDEADYYCQSYDSSLSGSYVFGTGTKVTVLG | 29400 MFI | 15500 MFI | 31100 MFI | – | – | – | –
